Measured values as given in patent US20160272937A1, “METHODS OF GENERATING INTERMEDIATE MESODERM CELLS FROM HUMAN PLURIPOTENT STEM CELLS” (THE BRIGHAM AND WOMEN'S HOSPITAL, INC., priority 2013, published 2016).

Assays:
Format in all cases: cell-based, human
CHIR-induced hPSCs [1] = test: Definitive endoderm differentiation of CHIR-induced hPSCs (SOX17/FOXA2 immunostaining)
Method: Mesendoderm differentiation—the media is changed to Advanced RPMI (A-RPMI, Invitrogen) supplemented with 1×L-glutamax and 1× penicillin/streptomycin and either CHIR99021 (CHIR, Stemgent), human Wnt3a (R&D systems), and/or human activin A (R&D systems) at the doses described. […] Hepatic differentiation—cells at the definitive endoderm stage are treated with A-RPMI+1×L-glu+1×P/S+1×B27 supplement (Invitrogen)+20 ng/mL BMP-4 (R&D systems)+10 ng/mL FGF2 (Invitrogen) for 5 days, then A-RPMI+1×L-glu+1×P/S+1×B27+10 ng/mL HGF for 5 days, then HCM Hepatocyte Culture Medium (Lonza) supplemented with 20 ng/mL Oncostatin M and 10 ng/mL HGF (Peprotech) for 5 days. Pancreatic differentiation—cells at the definitive endoderm stage are treated with DMEM/F12+2% FBS (Hyclone)+50 ng/mL FGF7 (R&D systems) for 2 days, then high-glucose DMEM (Mediatech)+1% B27+2 μM retinoic acid (Sigma)+0.25 μM KAAD cyclopamine (EMD Millipore)+100 ng/mL recombinant human Noggin (R&D systems) for 4 days, then high-glucose DMEM+1% B27+100 ng/mL Noggin+300 nM indolactam V (Stemgent)+1 μM ALK5 inhibitor II (Axxora) for 4 days. […]
Nuclei can be counterstained with DAPI (Sigma). […] Immunofluorescence is visualized using an inverted fluorescence microscope (Nikon Eclipse Ti, Tokyo, Japan). Quantification is performed by counting a minimum of five random fields at 10× magnification. […]

CHIR-induced hPSCs [2] = test: Growth factor screen for PAX2 induction in CHIR-induced mesendodermal cells (immunostaining); conditions: CHIR 24 hours then increasing doses of factor, day 4
Method: For immunofluorescence studies, cultures are washed once with PBS (Invitrogen) and fixed in 4% paraformaldehyde for 15 min at room temperature (RT). Fixed cells are then washed three times in PBS and incubated in blocking buffer (0.3% Triton X-100 (Fisher Scientific) and 5% normal donkey serum (EMD Millipore) in PBS) for 1 hour at RT.
The cells are then incubated with primary antibody overnight at 4° C. or for 2 hours at RT in antibody dilution buffer (0.3% Triton X-100 and 1% BSA (Roche) in PBS). Cells are then washed three times in PBS and incubated with Alexa Fluor 488-, 555-, or 647-conjugated secondary antibodies (1:500) (Molecular Probes) in antibody dilution buffer for 1 hour at RT. For immunostaining with Biotinylated Lotus Tetragonolobus Lectin (LTL, Vector Labs), a Streptavidin/Biotin Blocking Kit (Vector Labs) and Alexa Fluor 488- or 647-conjugated Streptavidin (Molecular Probes) were used according to manufacturer's instructions.
Nuclei can be counterstained with DAPI (Sigma). […] Immunofluorescence is visualized using an inverted fluorescence microscope (Nikon Eclipse Ti, Tokyo, Japan). Quantification is performed by counting a minimum of five random fields at 10× magnification.
PAX2 is selected since it is an early marker of IM, and, unlike the markers OSR1 or LHX1 which are also expressed in the adjacent lateral plate mesoderm, PAX2 expression is restricted in mesoderm to the IM.

[3] = system: hPSC-derived PAX2+LHX1+ cells; test: SIX2 induction in PAX2+LHX1+ cells (cap mesenchyme differentiation, immunofluorescence); conditions: activin A 10 ng/ml added on day 3, 5 additional days

B1: activin A: human activin A (R&D systems) (protein, UniProt P08476 311-426, looked up)
Inhibin beta A chain: GLECDGKVNICCKKQFFVSFKDIGWNDWIIAPSGYHANYCEGECPSHIAGTSGSSLSFHSTVINHYRMRGHSPFANLKSCCVPTKLRPMSMLYYDDGQNIIKKDIQNMIVEECGCS
modifications: Inhibin beta A chain
number of SOX17+ cells (CHIR-induced hPSCs [1]; activin A added after 48 hours of CHIR treatment, 4 days of differentiation): markedly reduced
efficiency of SOX17+FOXA2+ definitive endoderm generation (CHIR-induced hPSCs [1]; high doses of activin A after 24 hours of CHIR treatment, 2-3 days of subsequent differentiation): greater than 95%
PAX2 expression (CHIR-induced hPSCs [2]): no PAX2 expression
SIX2+ cells by immunofluorescence [3]: small populations of SIX2+ cells
